The values below are quoted from earlier work in patent publication US5916869A, “Method of treating birds in ovo” (North Carolina State University, priority 1997, dated 1999).

In the data set the test system is sodium-dependent duodenal active transport. The conditions noted are these: sheep, injected.

B1: recombinant bovine growth hormone (protein, UniProt P01246 27-217, looked up)
Somatotropin: AFPAMSLSGLFANAVLRAQHLHQLAADTFKEFERTYIPEGQRYSIQNTQVAFCFSETIPAPTGKNEAQQKSDLELLRISLLLIQSWLGPLQFLSRVFTNSLVFGTSDRVYEKLKDLEEGILALMRELEDGTPRAGQILKQTYDKFDTNMRSDDALLKNYGLLSCFRKDLHKTETYLRVMKCRRFGEASCAF
notes: recombinant bovine growth hormone injected into sheep in a cited study
Turning to B1, the “increase of sodium-dependent duodenal active transport of glucose” value was “approximately 60%” and the “increase of transport of proline” value was “approximately 30%”.
